Measured values: patent publication EP4775675A1

Legend:
[1] = target: cynomolgus monkey BDCA-2 on cells (Jurkat-cynoBDCA-2 cells; cynomolgus monkey pDCs) (cynomolgus monkey); assay: flow cytometry on Jurkat-cynoBDCA-2 cells
[2] = target: human BDCA-2 on cells (Jurkat-hBDCA-2 cells; human pDCs; human PBMCs) (human) (UniProt Q8WTT0); assay: flow cytometry on Jurkat-hBDCA-2 cells
human BDCA-2 on cells (Jurkat-hBDCA-2 cells; human pDCs; human PBMCs) (human), sequence (Q8WTT0 whole entry): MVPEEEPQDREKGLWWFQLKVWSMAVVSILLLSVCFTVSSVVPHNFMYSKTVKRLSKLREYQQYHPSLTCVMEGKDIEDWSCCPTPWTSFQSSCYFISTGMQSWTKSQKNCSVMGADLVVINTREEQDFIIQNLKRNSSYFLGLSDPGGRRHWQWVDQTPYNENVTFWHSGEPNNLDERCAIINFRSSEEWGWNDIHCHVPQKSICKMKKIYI

cynomolgus monkey BDCA-2 on cells (Jurkat-cynoBDCA-2 cells; cynomolgus monkey pDCs) (cynomolgus monkey), sequence (chain, as listed by the source): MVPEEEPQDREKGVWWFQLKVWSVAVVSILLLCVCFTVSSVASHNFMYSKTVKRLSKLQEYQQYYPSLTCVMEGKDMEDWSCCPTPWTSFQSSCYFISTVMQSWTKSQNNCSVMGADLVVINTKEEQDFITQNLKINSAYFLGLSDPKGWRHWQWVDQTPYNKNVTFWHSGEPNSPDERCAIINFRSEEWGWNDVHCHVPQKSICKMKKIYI

An MFI [1] of 67.3 and an MFI [2] of 17.5 were found for Isotype control (antibody) in this work.
